Data taken from article doi:10.1101/865998 (bioRxiv, 2019).
Several values for one entry are separate records, joined by “and”; a condition that tells them apart may be missing. Identical values can stand only once. No end group written: not given here.

Legend:
[1] = biological target: TM24 peptide expressed as a EYFP fusion in COS cells; assay: FRAP
FRAP = biological target: the molecule itself; assay: FRAP
native gel or EMSA = biological target: the molecule itself; assay: native gel or EMSA
[2] = biological target: the molecule itself; assay: SDS-PAGE without cross-linker

## TM24 peptide expressed as a EYFP fusion in COS cells (domain or fragment)
[1]
  stoichiometry N: 7

## KKVGLLAFLGLLFCLGVAMFTYKK (also: FITC conjugated, position not given here) [TM24-FITC]
FRAP
  binding result: binds

B1: CX3CL1-EYFP fusion protein (L929 cells stably expressing CX3CL1, L_(CX3CL1)) (natural protein)
chain: QHHGVTKCNITCSKMTSKIPVALLIHYQQNQASCGKRAIILETRQHRLFCADPKEQWVKDAMQHLDRQAAALTRNGGTFEKQIGEVKPRTTPAAGGMDESVVLEPEATGESSSLEPTPSSQEAQRALGTSPELPTGVTGSSGTRLPPTPKAQDGGPVGTELFRVPPVSTAATWQSSAPHQPGPSLWAEAKTSEAPSTQDPSTQASTASSPAPEENAPSEGQRVWGQGQSPRPENSLEREEMGPVPAHTDAFQDWGPGSMAHVSVVPVSSEGTPSREPVASGSWTPKAEEPIHATMDPQRLGVLITPVPDAQAATRRQAVGLLAFLGLLFCLGVAMFTYQSLQGCPRKMAGEMAEGLRYIPRSCGSNSYVLVPV
Native gel or EMSA
  stoichiometry N: ~3 and 5 and ≥ 3

## KKVGLLAFLGLLFCLGVAMFTYKK [TM24 peptide (20 residues of the CX3CL1 TM domain with 2 lysines added at each end)]
[2]
  stoichiometry N: 2
